Source: patent US20090053196

T1: myc-tagged UFD-2 (^mycUFD-2), Q09349
T1 chain: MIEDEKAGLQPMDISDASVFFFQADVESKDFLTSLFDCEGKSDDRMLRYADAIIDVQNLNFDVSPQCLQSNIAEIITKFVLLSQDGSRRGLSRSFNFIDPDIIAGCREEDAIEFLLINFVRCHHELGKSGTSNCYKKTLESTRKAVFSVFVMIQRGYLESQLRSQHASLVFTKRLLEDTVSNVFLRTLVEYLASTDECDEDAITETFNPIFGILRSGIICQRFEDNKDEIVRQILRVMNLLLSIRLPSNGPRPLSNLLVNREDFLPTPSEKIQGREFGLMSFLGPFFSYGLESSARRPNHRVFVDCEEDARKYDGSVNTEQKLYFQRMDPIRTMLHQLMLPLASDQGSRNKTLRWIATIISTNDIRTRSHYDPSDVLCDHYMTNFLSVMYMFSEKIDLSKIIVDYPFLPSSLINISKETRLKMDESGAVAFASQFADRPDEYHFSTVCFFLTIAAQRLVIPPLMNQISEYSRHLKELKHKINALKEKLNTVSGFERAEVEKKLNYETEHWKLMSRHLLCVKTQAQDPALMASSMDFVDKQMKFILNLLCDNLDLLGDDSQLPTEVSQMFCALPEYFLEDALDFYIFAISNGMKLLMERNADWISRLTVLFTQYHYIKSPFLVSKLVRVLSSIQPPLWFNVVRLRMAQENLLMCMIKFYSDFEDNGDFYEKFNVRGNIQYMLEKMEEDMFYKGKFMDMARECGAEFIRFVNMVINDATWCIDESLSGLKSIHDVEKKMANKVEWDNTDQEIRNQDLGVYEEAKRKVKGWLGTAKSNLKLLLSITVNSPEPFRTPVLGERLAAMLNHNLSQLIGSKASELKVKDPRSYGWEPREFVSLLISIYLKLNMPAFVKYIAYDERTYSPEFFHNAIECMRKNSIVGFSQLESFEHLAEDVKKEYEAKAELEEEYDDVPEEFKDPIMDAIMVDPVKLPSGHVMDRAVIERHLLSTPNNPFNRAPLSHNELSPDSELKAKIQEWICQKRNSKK

B1: myc-tagged CHN-1 (^mycCHN-1) (protein)
chain: MSSGAEQHNTNGKKCYMNKRYDDAVDHYSKAIKVNPLPKYYQNRAMCYFQLNNLKMTEEDCKRALELSPNEVKPLYFLGNVFLQSKKYSEAISCLSKALYHNAVITNAPDIENALKRARHQKYEEEESKRIVQDVEFHTYLESLIEKDRQENSENPEELQRADMAKKRLTELTLATQEKRQNREVPEMLCGKITLELMKEPVIVPSGITYDREEIVQHLRRIGHFDPVTRKPLTENEIIPNYALKEVIEKFLDDNPWAKYEPGGMV
B2: myc-tagged UFD-2 (^mycUFD-2) (protein)
chain: T1 chain

How the values were obtained:
[1] = biological target: FLAG-tagged UNC-45 (UNC-45^FLAG)
[2] = biological target: T1, myc-tagged UFD-2 (^mycUFD-2), Q09349

Protein	in vitro ubiquitylation of UNC-45 (with E1 and the E2 LET-70), Western blot [1]	in vitro multiubiquitylation of UNC-45 with both enzymes present, Western blot [2]
B1	the addition of full-length CHN-1 proceeds to efficient ubiquitin conjugation. However, the majority of conjugates appeared to contain only one to three ubiquitin moieties	these enzymes together dramatically stimulated the multiubiquitylation reaction, yielding UNC-45 conjugates with significantly longer chains than those conjugated by CHN-1 or UFD-2 alone
B2	addition of one to three ubiquitins to the substrate protein UNC-45	–
